Measurements taken from US20190145976A1 (GOVERNING COUNCIL OF THE UNIVERSITY OF TORONTO, published 2019).

T1: recombinant soluble human αKlotho (human, UniProt Q9UEF7 34-981)
T1 construct: extracellular domain; Bought (R&D Systems); also called Hu aKL; soluble human αKlotho ectodomain
T1 sequence (looked up): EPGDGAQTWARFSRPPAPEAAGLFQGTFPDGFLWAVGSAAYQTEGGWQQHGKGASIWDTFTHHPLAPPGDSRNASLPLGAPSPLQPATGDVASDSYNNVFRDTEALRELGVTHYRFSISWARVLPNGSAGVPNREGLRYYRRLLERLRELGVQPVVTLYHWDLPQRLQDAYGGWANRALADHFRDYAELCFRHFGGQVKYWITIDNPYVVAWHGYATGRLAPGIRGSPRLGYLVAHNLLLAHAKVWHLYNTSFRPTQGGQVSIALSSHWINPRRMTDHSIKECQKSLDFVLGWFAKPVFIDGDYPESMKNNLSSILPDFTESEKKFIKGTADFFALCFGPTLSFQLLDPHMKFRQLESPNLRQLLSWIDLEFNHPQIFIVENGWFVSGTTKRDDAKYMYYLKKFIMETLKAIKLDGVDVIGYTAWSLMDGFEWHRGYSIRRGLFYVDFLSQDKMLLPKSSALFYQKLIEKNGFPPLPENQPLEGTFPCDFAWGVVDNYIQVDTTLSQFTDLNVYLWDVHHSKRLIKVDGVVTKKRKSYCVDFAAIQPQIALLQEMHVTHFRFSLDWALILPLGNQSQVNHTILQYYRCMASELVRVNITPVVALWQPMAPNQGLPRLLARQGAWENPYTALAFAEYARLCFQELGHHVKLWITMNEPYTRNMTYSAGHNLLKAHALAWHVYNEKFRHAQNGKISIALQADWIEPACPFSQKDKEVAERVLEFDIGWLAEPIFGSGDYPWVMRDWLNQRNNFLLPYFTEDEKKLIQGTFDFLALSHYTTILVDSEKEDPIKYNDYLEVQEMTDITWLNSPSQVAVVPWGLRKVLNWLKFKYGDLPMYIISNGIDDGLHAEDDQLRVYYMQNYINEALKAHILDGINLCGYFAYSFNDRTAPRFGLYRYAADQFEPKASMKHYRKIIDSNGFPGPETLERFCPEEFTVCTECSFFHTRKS

T2: ligand-binding domain of human FGFR1c (D142 to R365) (human, UniProt P11362 142-365)
T2 construct: range 142-365; also called FGFR1c alone
T2 sequence (looked up): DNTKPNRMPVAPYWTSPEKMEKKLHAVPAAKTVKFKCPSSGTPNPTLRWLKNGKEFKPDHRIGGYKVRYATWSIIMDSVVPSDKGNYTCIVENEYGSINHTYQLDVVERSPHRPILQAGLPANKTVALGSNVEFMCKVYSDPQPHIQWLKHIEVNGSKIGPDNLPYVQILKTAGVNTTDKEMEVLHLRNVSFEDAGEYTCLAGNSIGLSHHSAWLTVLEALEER

T3: native rat αKlotho in tissue and NRK cells (rat, UniProt Q9Z2Y9 35-1014)
T3 construct: also called αKlotho of rat parathyroid tissue; native αKlotho of NRK cells
T3 sequence (looked up): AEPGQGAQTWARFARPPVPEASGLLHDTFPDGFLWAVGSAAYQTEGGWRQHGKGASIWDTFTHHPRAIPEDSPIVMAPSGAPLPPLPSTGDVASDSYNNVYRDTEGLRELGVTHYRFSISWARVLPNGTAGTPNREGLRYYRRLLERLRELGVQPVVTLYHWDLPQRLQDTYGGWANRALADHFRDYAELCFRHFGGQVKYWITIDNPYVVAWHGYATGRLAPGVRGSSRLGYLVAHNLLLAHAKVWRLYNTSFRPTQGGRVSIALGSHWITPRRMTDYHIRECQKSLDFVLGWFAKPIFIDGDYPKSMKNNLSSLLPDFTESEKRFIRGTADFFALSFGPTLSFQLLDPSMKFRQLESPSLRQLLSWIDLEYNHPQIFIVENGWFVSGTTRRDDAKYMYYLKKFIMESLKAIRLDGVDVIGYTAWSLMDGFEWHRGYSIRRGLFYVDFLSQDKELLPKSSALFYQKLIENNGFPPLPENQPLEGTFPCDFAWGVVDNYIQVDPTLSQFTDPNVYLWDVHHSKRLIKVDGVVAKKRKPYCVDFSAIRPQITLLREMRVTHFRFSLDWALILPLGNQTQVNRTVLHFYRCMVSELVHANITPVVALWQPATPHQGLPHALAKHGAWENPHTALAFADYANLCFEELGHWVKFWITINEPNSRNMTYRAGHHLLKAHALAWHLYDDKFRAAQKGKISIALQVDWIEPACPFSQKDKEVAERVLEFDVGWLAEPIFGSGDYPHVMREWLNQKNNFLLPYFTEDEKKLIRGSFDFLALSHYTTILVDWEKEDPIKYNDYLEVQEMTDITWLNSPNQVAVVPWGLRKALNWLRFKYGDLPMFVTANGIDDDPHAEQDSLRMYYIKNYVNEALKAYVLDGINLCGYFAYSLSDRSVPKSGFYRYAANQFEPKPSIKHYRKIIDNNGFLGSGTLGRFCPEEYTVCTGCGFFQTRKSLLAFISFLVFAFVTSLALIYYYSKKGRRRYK

B1: sb106 Fab-phage (Fab, V domains shown)
VH: EVQLVESGGGLVQPGGSLRLSCAASGFNISYYSIHWVRQAPGKGLEWVAYISPSYGYTSYADSVKGRFTISADTSKNTAYLQMNSLRAEDTAVYYCARYYVYASHGWAGYGMDYWGQGTLVTVSS
VL: DIQMTQSPSSLSASVGDRVTITCRASQSVSSAVAWYQQKPGKAPKLLIYSASSLYSGVPSRFSGSRSGTDFTLTISSLQPEDFATYYCQQAGYSPITFGQGTKVEIKR
notes: also called sb106-phage; Sb106-phage
B2: sb106-IgG (antibody, V domains shown)
VH: EVQLVESGGGLVQPGGSLRLSCAASGFNISYYSIHWVRQAPGKGLEWVAYISPSYGYTSYADSVKGRFTISADTSKNTAYLQMNSLRAEDTAVYYCARYYVYASHGWAGYGMDYWGQGTLVTVSS
VL: DIQMTQSPSSLSASVGDRVTITCRASQSVSSAVAWYQQKPGKAPKLLIYSASSLYSGVPSRFSGSRSGTDFTLTISSLQPEDFATYYCQQAGYSPITFGQGTKVEIKR

Experiments:
[1] = target: T1, recombinant soluble human αKlotho; assay: competitive Fab-phage ELISA with soluble human αKlotho as competitor (FIG. 1C)
Experimental: (§1) (B) Specificity determination of anti-αKlotho sb106 by Fab-phage ELISA: sb106 Fab-phage were incubated with the following immobilized antigens: a complex of FGFR1c/αKlotho complex (aKL-R1), FGFR1c alone (R1), human αKlotho (Hu aKL) and mouse αKlotho (Mu aKL), or neutravidin (NA) and bovine serum albumin (BSA) as negative controls. After washing off unbound phage, bound phages were detected using an HRP-conjugated anti-phage antibody. Colorimetric HRP reagents allow for absorbance readings at 450 nm. […] The binding signals to immobilized human αKlotho reported are an average of two data sets.
(§2) Binding selections, phage ELISAs and Fab protein purification were performed as described. Briefly, phage from library F were cycled through rounds of panning with the binary complex of αKlotho extracellular domain and FGFR1c ligand-binding domain on 96-well Maxisorp Immunoplates (Fisher Scientific, Nepean, ON, Canada) as the capture target. After 5 rounds of selection, phage were produced from individual clones grown in a 96-well format and phage ELISAs were performed to detect specific binding clones. […] A competitive binding ELISA was performed by pre-incubating sb106-phage with serial dilutions of soluble human αKlotho (50-0.0005 nM×1 hour) prior to binding to an ELISA plate coated with human αKlotho. […]

[2] = target: T2, ligand-binding domain of human FGFR1c …; assay: Fab-phage ELISA on immobilised antigen, HRP-conjugated anti-phage antibody, absorbance at 450 nm
Experimental: as §1
(§3) Binding selections, phage ELISAs and Fab protein purification were performed as described. Briefly, phage from library F were cycled through rounds of panning with the binary complex of αKlotho extracellular domain and FGFR1c ligand-binding domain on 96-well Maxisorp Immunoplates (Fisher Scientific, Nepean, ON, Canada) as the capture target. After 5 rounds of selection, phage were produced from individual clones grown in a 96-well format and phage ELISAs were performed to detect specific binding clones. […] A competitive binding ELISA was performed by pre-incubating sb106-phage with serial dilutions of soluble human αKlotho (50-0.0005 nM×1 hour) prior to binding to an ELISA plate coated with human αKlotho. […] Fab and IgG proteins were affinity-purified on Protein A affinity columns (GE Healthcare, Mississauga, ON, Canada).

neutravidin = target: T4, neutravidin (UniProt P02701 25-152); assay: as above
T4 construct: Negative control in the phage ELISA; also called NA; NAV
Experimental: as §1, §3

bovine serum albumin = target: T5, bovine serum albumin (bovine, UniProt P02769 25-607); assay: as above
T5 construct: Negative control in the phage ELISA; also called BSA
Experimental: as §1, §3

[3] = target: T1, recombinant soluble human αKlotho; assay: competitive Fab-phage ELISA: sb106-phage pre-incubated with soluble human αKlotho (50-0.0005 nM), then bound to plate-coated human αKlotho; competitive Fab-phage ELISA; soluble human αKlotho as competitor
Experimental: as §1, §2

[4] = target: T3, native rat αKlotho in tissue and NRK …; assay: immunohistochemistry on freshly frozen unfixed rat parathyroid sections; freshly frozen unfixed rat parathyroid tissue (native fold)
Experimental: For labeling, sections were blocked (PBS, 1.5% BSA, 10% goat serum; 40 min) and incubated with the primary antibody sb106 ([…] in blocking solution; 4° C. overnight). After washing (PBS), sections were incubated with the Alexa 546 goat anti-human IgG (1:800 dilution, Invitrogen) for 1 hour at room temperature. After additional washes with PBS, the sections were fixed with 4% paraformaldehyde in PBS, washed with PBS, and mounted and visualized with a Zeiss LSM510 microscope.
Sb106 was highly reactive against αKlotho under native conditions. Immunoblot signals under denaturing conditions against mouse, rat, and human kidney tissue were weak, but in samples from transgenic mice overexpressing αKlotho[79], sb106-Fab detected a band corresponding to the full-length extracellular domain of αKlotho (FIG. 2A). In cultured cells, sb106-Fab was not able to detect αKlotho in immunoblots under denaturing conditions with lysates from NRK cells expressing native αKlotho but it was able to detect overexpressed antigen in cell lysates from HEK293 cells transfected with αKlotho (FIG. 2B). […] Cells were then incubated with sb106-Fab ([…] in 1% BSA in PBS) for 1 hr. Cells were washed 5 times with cold PBS (2 min each) and then incubated with anti-FLAG-Alexa488 (the C-terminus of the Fab light chain contains a Flag epitope tag) (1:400 in 1% BSA in PBS) for 1 hr, while being protected from light. […]

T5 sequence (P02769 25-607 limits assumed): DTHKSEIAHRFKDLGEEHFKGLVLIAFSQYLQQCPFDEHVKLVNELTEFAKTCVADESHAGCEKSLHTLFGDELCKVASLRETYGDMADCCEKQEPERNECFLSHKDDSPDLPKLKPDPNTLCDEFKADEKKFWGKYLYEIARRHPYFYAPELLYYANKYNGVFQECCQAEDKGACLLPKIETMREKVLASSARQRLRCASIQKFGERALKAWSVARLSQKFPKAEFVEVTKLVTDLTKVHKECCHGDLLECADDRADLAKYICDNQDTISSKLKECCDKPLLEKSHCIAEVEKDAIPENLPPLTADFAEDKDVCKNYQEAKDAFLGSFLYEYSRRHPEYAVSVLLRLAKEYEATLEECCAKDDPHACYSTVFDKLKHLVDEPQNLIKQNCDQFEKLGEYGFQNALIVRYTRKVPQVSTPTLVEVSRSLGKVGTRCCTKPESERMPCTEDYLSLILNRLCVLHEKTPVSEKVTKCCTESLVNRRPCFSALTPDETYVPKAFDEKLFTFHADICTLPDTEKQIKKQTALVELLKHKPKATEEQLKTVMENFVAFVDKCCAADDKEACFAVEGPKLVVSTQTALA
T4 sequence (P02701 25-152): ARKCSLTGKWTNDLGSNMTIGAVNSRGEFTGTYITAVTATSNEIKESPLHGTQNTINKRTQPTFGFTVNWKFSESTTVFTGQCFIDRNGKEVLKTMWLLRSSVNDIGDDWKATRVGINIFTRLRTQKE

Binder	Kd [1] [nM]	binding result [2]	binding result (neutravidin)	binding result (bovine serum albumin)	IC50 [3] [nM]	binding result [4]
B1	1 to 2	no binding	no binding	no binding	1.7	–
B2	–	–	–	–	–	binds
